Measured values from US20110092419A1.

Target: purified recombinant human insulin receptor (either with or without exon 11) (human) (UniProt P06213)
Experiment: SPA competition with A14Tyr[125I]-human insulin on purified recombinant human insulin receptor

Compared with “A14E, B27K, desB28, desB29, desB30 human insulin (from UniProt P01308 90-110; P01308 25-51) (ligand)”, “A8H, A14E, B22K, B25H, B29R, desB30 human insulin (from UniProt P01308 90-110; P01308 25-53) (ligand)” is higher in Relative insulin receptor binding affinity (%) (% of the affinity of human insulin): 79 for the first, 81.1 for the second.

First: A14E, B10E, B25H, B26G, B27G, B28G, desB30 human insulin (from UniProt P01308 90-110; P01308 25-53) (ligand)
Second: A14H, B16H, B25H, desB27, desB28, desB29, desB30 Human insulin (from UniProt P01308 90-110; P01308 25-50) (ligand)
The Relative insulin receptor binding affinity (%) (% of the affinity of human insulin) of the first is higher: 144 for the first, 2 for the second.

First: A14E, B22K, B25H, B26G, B27G, B28G, B29R, desB30 human insulin (from UniProt P01308 90-110; P01308 25-53) (ligand)
Second: A14E, A22K, B16H, B25H, B29R, desB30 human insulin (from UniProt P01308 90-110; P01308 25-53) (ligand)
The Relative insulin receptor binding affinity (%) (% of the affinity of human insulin) of the first is higher: 60.7 for the first, 7.61 for the second.

First: A14E, B25H, B26G, B27G, B28K, desB30 human insulin (from UniProt P01308 90-110; P01308 25-53) (ligand)
Second: A8H, A14E, A22K, B25H, B29R, desB30 human insulin (from UniProt P01308 90-110; P01308 25-53) (ligand)
The Relative insulin receptor binding affinity (%) (% of the affinity of human insulin) of the first is higher: 69.5 for the first, 67.1 for the second.

Compared with “A14E, A21G, B25H, desB30 human insulin (from UniProt P01308 90-110; P01308 25-53) (ligand)”, “A14E, B16H, B22K, B25H, B29R, desB30 human insulin (from UniProt P01308 90-110; P01308 25-53) (ligand)” is lower in Relative insulin receptor binding affinity (%) (% of the affinity of human insulin): 13.1 for the first, 4.61 for the second.

Compared with “A14P, B25H, desB30 human insulin (from UniProt P01308 90-110; P01308 25-53) (ligand)”, “A8H, A14H, B16H, B25H, desB30 human insulin (from UniProt P01308 90-110; P01308 25-53) (ligand)” is higher in Relative insulin receptor binding affinity (%) (% of the affinity of human insulin): 14 for the first, 27 for the second.

Compared with “A14E, A22K, B25H, B27E, B29R, desB30 human insulin (from UniProt P01308 90-110; P01308 25-53) (ligand)”, “A14E, A22K, B25H, B26G, B27G, B28G, B29R, desB30 human insulin (from UniProt P01308 90-110; P01308 25-53) (ligand)” is higher in Relative insulin receptor binding affinity (%) (% of the affinity of human insulin): 24.6 for the first, 59.2 for the second.

Compared with “A14E, A15E, B25H, desB30 human insulin (from UniProt P01308 90-110; P01308 25-53) (ligand)”, “A14K, B25H, B29R human insulin (from UniProt P01308 90-110; P01308 25-54) (ligand)” is lower in Relative insulin receptor binding affinity (%) (% of the affinity of human insulin): 23 for the first, 11 for the second.

Going from “A14E, B25H, B26G, B27E, B28G, desB30 human insulin (from UniProt P01308 90-110; P01308 25-53) (ligand)” to “A8H, A14E, B16H, B25H, desB30 human insulin (from UniProt P01308 90-110; P01308 25-53) (ligand)”, the Relative insulin receptor binding affinity (%) (% of the affinity of human insulin) rises from 22.7 to 24.

Compared with “A8H, A14E, B10E, B25H, B26G, B27G,B28G, desB30 human insulin (from UniProt P01308 90-110; P01308 25-53) (ligand)”, “A14E, B25H, B27G, B28G, desB30 human insulin (from UniProt P01308 90-110; P01308 25-53) (ligand)” is lower in Relative insulin receptor binding affinity (%) (% of the affinity of human insulin): 136 for the first, 16.5 for the second.

Compared with “A14E, B16E, B22K, B25H, B29R, desB30 human insulin (from UniProt P01308 90-110; P01308 25-53) (ligand)”, “A14E, B25H, B29R, desB30 human insulin (from UniProt P01308 90-110; P01308 25-53) (ligand)” is higher in Relative insulin receptor binding affinity (%) (% of the affinity of human insulin): 0.59 for the first, 26.1 for the second.

Compared with “A14E, B25H, B28G, desB30 human insulin (from UniProt P01308 90-110; P01308 25-53) (ligand)”, “A14E, A22K, B16E, B25H, B29R, desB30 human insulin (from UniProt P01308 90-110; P01308 25-53) (ligand)” is lower in Relative insulin receptor binding affinity (%) (% of the affinity of human insulin): 18.4 for the first, 0.9 for the second.

Going from “A14E, B25H, B26E, B27E, desB30 human insulin (from UniProt P01308 90-110; P01308 25-53) (ligand)” to “A14E, B16H, B25H, desB27, desB28, desB29, desB30 human insulin (from UniProt P01308 90-110; P01308 25-50) (ligand)”, the Relative insulin receptor binding affinity (%) (% of the affinity of human insulin) falls from 16.5 to 1.9.
